Experimental data reported in IntAct's records for PubMed 19424970.

B1: UL16-binding protein 2 (Homo sapiens), Q9BZM5 (parent)
chain: MAAAAATKILLCLPLLLLLSGWSRAGRADPHSLCYDITVIPKFRPGPRWCAVQGQVDEKTFLHYDCGNKTVTPVSPLGKKLNVTTAWKAQNPVLREVVDILTEQLRDIQLENYTPKEPLTLQARMSCEQKAEGHSSGSWQFSFDGQIFLLFDSEKRMWTTVHPGARKMKEKWENDKVVAMSFHYFSMGDCIGWLEDFLMGMDSTLEPSAGAPLAMSSGTTQLRATATTLILCCLLIILPCFILPGI

Variants of: B1
Settings: with nkg2d_human KLRK1, P26718
Chain of nkg2d_human KLRK1, P26718 (P26718 whole entry): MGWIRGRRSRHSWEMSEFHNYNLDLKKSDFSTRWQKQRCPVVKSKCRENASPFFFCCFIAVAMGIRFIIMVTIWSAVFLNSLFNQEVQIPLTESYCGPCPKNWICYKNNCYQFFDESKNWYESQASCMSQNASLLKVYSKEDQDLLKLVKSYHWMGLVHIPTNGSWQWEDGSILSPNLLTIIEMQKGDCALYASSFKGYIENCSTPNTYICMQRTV

| Variant | effect of a mutation on the interaction |
| --- | --- |
| F141L | decreasing interaction strength |
